Source: patent US7074595B2, “General means of labeling protein by using wheat embryo cell-free protein synthesis system” (CellFree Sciences Co., Ltd., priority 2000, dated 2006)

Experiments:
Format in all cases: biochemical
[1] = substrate: NC(=O)C1=CN([C@@H]2O[C@H](COP(=O)(O)OP(=O)(O)OC[C@H]3O[C@@H](n4cnc5c(N)ncnc54)[C@H](OP(=O)(O)O)[C@@H]3O)[C@@H](O)[C@H]2O)C=CC1; test: enzymatic properties of DHFR (Table 1): Michaelis constant and maximum velocity, Met-DHFR; conditions: other: Met-DHFR
Procedure: (§1) Purification of GFP and measurement of its activity by analysis of fluorescence spectrum using a fluorospectrophotometer were carried out in accordance with a method by Deschamps, et al. [Deschamps, J. R. et al., (1995) Protein Expression and Purification, 6, 555–558]. In the measurement of fluorescence spectrum, a fluorophotometer of type RF-5000 by Shimadzu was used. DHFR activity was measured by a method of Stanley, et al. [Methods. Enzymol. 18, 195–199 (1971)].
(§2) Then enzymatic properties of the selenomethionine-containing proteins purified as such were investigated biochemically. Fluorescence emission spectrum of a certain concentration of the purified GFP preparation shown in FIG. 2 excited at the wavelength of 395 nm was measured within a range of 410 nm to 600 nm and the result is shown in FIG. 3. As will be apparent from FIG. 3, there is no difference between the fluorescence emission spectra of GFP [(A) in FIG. 3] and selenomethionine GFP [(B) in FIG. 3]. Thus, the conclusion is that the change in GFP activity by substituting methionine residue with selenomethionine is not higher than the usual measurement sensitivity. […]

[2] = substrate: NC(=O)C1=CN([C@@H]2O[C@H](COP(=O)(O)OP(=O)(O)OC[C@H]3O[C@@H](n4cnc5c(N)ncnc54)[C@H](OP(=O)(O)O)[C@@H]3O)[C@@H](O)[C@H]2O)C=CC1; test: enzymatic properties of DHFR (Table 1): Michaelis constant and maximum velocity, SeMet-DHFR; conditions: other: SeMet-DHFR
Procedure: as §1, §2

[3] = substrate: NC(=O)C1=CN([C@@H]2O[C@H](COP(=O)(O)OP(=O)(O)OC[C@H]3O[C@@H](n4cnc5c(N)ncnc54)[C@H](OP(=O)(O)O)[C@@H]3O)[C@@H](O)[C@H]2O)C=CC1; test: enzymatic properties of DHFR (Table 2): Michaelis constant and maximum velocity, Natural-Type DHFR; conditions: other: Natural-Type DHFR
Procedure: as §1
Then enzymatic properties of the purified heavy hydrogen-labeled DHFR were biochemically investigated by the same manner as in Example 1. As will be apparent from Table 2, both Vmax and Michaelis constant (Km) to NADPH which are parameters for enzymatic chemical property of natural-type DHFR and heavy hydrogen-labeled DHFR show no difference between both enzymes. Thus, it became clear that DHFR comprising heavy hydrogen-labeled amino acids maintained nearly the same enzymatic activity as the natural-type DHFR.

[4] = substrate: NC(=O)C1=CN([C@@H]2O[C@H](COP(=O)(O)OP(=O)(O)OC[C@H]3O[C@@H](n4cnc5c(N)ncnc54)[C@H](OP(=O)(O)O)[C@@H]3O)[C@@H](O)[C@H]2O)C=CC1; test: enzymatic properties of DHFR (Table 2): Michaelis constant and maximum velocity, Heavy Hydrogen-Labeled DHFR; conditions: other: Heavy Hydrogen-Labeled DHFR
Procedure: as §1
With regard to the wheat embryo, that being contaminated with substantially no endosperm component prepared by the method mentioned in Example 1 was used. Preparation of an extract from wheat embryo was carried out by the exactly same method as Example 1 except that the solution for extraction and the solution used for gel filtration contained 20 kinds of heavy hydrogen-labeled L-amino acids instead of 20 kinds of selenomethionine-containing L-amino acids. Concentration of the prepared extract was adjusted to 170˜250 A260 nm (A260/A280=1.5).
Although the composition of the protein synthesis reaction solution is as same as that described in Example 1, it contains 20 kinds of heavy hydrogen-labeled L-amino acids instead of 20 kinds of selenomethionine-containing L-amino acids.
Then enzymatic properties of the purified heavy hydrogen-labeled DHFR were biochemically investigated by the same manner as in Example 1. […]

B1: dihydrofolate reductase (DHFR), natural-type methionine-containing (Met-DHFR) (Escherichia coli K-12) (protein)
chain: MISLIAALAVDRVIGMENAMPWNLPADLAWFKRNTLNKPVIMGRHTWESIGRPLPGRKNIILSSQPGTDDRVTWVKSVDEAIAACGDVPEIMVIGGGRVYEQFLPKAQKLYLTHIDAEVEGDTHFPDYEPDDWESVFSEFHDADAQNSHSYCFEILERR
notes: made in house; host or cells: wheat embryo extract cell-free protein synthesis (dialysis type)
B1 gave a Km [1] of 11.2 µM.

B2: dihydrofolate reductase (DHFR), selenomethionine-containing (SeMet-DHFR) (Escherichia coli K-12) (protein)
chain: MISLIAALAVDRVIGMENAMPWNLPADLAWFKRNTLNKPVIMGRHTWESIGRPLPGRKNIILSSQPGTDDRVTWVKSVDEAIAACGDVPEIMVIGGGRVYEQFLPKAQKLYLTHIDAEVEGDTHFPDYEPDDWESVFSEFHDADAQNSHSYCFEILERR
notes: as for B1
For B2, the Km [2] was 10.2 µM.

B3: dihydrofolate reductase (DHFR), Natural-Type DHFR (Escherichia coli K-12) (protein)
chain: MISLIAALAVDRVIGMENAMPWNLPADLAWFKRNTLNKPVIMGRHTWESIGRPLPGRKNIILSSQPGTDDRVTWVKSVDEAIAACGDVPEIMVIGGGRVYEQFLPKAQKLYLTHIDAEVEGDTHFPDYEPDDWESVFSEFHDADAQNSHSYCFEILERR
notes: as for B1
In the case of B3, the Km [3] is reported as 13.2 µM.

B4: dihydrofolate reductase (DHFR), Heavy Hydrogen-Labeled DHFR (20 kinds of heavy hydrogen-labeled L-amino acids) (Escherichia coli K-12) (protein)
chain: MISLIAALAVDRVIGMENAMPWNLPADLAWFKRNTLNKPVIMGRHTWESIGRPLPGRKNIILSSQPGTDDRVTWVKSVDEAIAACGDVPEIMVIGGGRVYEQFLPKAQKLYLTHIDAEVEGDTHFPDYEPDDWESVFSEFHDADAQNSHSYCFEILERR
notes: as for B1
B4 was tested, and the Km [4] was 14.7 µM.
